Reference: patent US5869336A, “Recombinant enzymatically active calpain expressed in a baculovirus system” (Cephalon, Inc., priority 1997, dated 1999)

T1: recombinant human calpain I (Homo sapiens, UniProt P07384)
T1 construct: the 2153 bp fragment containing the entire human 80 kDa calpain I cDNA; made in house; host or cells: Spodoptera frugiperda Sf21 cells, recombinant baculovirus (AcNPV-hCANPI-2-5, or coinfection with AcNPV-hCANP30-5 and AcNPV-hCANPI80-5)
T1 sequence (P07384 2-714): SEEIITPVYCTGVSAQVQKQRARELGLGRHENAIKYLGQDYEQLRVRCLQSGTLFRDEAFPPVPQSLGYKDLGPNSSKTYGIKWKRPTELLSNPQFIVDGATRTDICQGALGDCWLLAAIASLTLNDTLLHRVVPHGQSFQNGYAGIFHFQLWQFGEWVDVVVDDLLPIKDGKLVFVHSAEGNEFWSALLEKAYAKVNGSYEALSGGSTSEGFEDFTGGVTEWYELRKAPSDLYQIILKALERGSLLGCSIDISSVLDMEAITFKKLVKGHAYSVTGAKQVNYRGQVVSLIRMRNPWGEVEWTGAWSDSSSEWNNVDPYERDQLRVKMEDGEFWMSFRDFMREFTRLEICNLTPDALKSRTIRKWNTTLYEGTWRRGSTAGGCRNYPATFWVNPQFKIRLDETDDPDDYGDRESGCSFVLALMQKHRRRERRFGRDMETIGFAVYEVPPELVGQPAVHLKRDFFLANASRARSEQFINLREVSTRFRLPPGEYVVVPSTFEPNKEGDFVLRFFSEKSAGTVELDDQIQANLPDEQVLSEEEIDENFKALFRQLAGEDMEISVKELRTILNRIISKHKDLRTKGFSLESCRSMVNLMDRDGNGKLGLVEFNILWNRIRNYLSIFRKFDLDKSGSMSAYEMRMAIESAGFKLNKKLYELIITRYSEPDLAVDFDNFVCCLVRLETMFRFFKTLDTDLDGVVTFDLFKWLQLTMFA
T1 sequence (P04632 1-268 partner): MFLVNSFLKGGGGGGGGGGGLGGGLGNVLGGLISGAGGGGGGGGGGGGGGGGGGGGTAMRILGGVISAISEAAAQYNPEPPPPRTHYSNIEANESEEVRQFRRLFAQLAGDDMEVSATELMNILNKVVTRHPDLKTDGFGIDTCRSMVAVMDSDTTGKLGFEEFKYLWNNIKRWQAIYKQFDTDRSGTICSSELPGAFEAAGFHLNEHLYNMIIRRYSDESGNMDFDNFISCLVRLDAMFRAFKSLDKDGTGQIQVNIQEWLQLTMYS

B1: native human calpain I: partially-purified native human calpain I (protein, UniProt P07384 2-714; P04632 1-268, looked up)
Calpain-1 catalytic subunit: T1 sequence (P07384 2-714)
Calpain small subunit 1: T1 sequence (P04632 1-268 partner)
B2: recombinantly produced calpain: recombinant enzymatically active human calpain I, heterodimer of 80 kDa and 30 kDa subunits, expressed in a baculovirus-insect cell system (protein, UniProt P07384 2-714; P04632 1-268, looked up)
Calpain-1 catalytic subunit: T1 sequence (P07384 2-714)
Calpain small subunit 1: T1 sequence (P04632 1-268 partner)
B3: 80 kDa recombinant calpain I: recombinant 80 kDa subunit of human calpain I expressed in Sf21 cells infected with AcNPV-hCANPI80-5 (protein, UniProt P07384 2-714, looked up)
Calpain-1 catalytic subunit: T1 sequence (P07384 2-714)

Key:
native human calpain I = test: Calcium-dependent protease activity (Succ-Leu-Tyr-AMC), native calpain I; assay type: biochemical; conditions: 1 mM Succ-Leu-Tyr-AMC, 5 mM CaCl2; FIG. 5a
Description: (§1) Sf21 cells were again seeded in 24 well plates at 1.5×10^5 cells/cm^2 and infected with either wild-type virus, coinfected with both AcNPV-hCANP30-5 and AcNPV-hCANPI80-5 (MOI of 5 for each virus), or infected with AcNPV-hCANPI-2-5 (MOI=5.7). The intracellular proteins were harvested at 40 hours after infection with 100 μl/well of the following lysis buffer: 50 mM Tris-HCl, pH 7.5, 50 mM NaCl, 1 mM EDTA, 1 mM EGTA, 5 mM β-mercaptoethanol, 0.1% Triton-100, followed by a 10 minutes centrifugation at 14,000×g at 4° C. to pellet the nuclei and some membranes. The in vitro enzyme activity of 20 μl of each extract (12.5-20 μg of total protein) was measured using the synthetic peptide substrate succinyl-leucine-tyrosine-aminomethyl coumarin (Succ-Leu-Tyr-AMC) at a 1 mM concentration with and without the addition of 5 mM CaCl2 following the procedure of Sasaki et al., J. Biol. Chem., 259:12489-12494 (1984), incorporated herein by reference. The activity obtained was compared with the enzyme activity of 2 μg of partially-purified native human calpain I produced according to the method of Siman et al., supra.
(§2) The activity in the presence of calcium was also measured with the addition of 12.5 μM calpain inhibitor I following the procedure disclosed in Sasaki et al., supra. The results are depicted in FIGS. 5a-d. In FIGS. 5a-d, open circles represent activity without calcium present. […]

[1] = molecular target: T1, recombinant human calpain I; test: Calcium-dependent protease activity (Succ-Leu-Tyr-AMC), recombinant calpain in Sf21 cell extracts; assay type: biochemical
Description: as §1, §2

[2] = test system: 80 kDa subunit of recombinant calpain I; test: Autolytic processing of the 80 kDa subunit to the 76 kDa form (immunoblot); assay type: biochemical, human; conditions: 6.7 mM CaCl2, 5 minutes, room temperature
Description: The 76 kDa form is produced in the presence of calcium by autolytic cleavage and is indicative of active enzyme. Lysates from cells either infected with wild-type AcNPV, coinfected with both AcNPV-hCANP30-5 and AcNPV-hCANPI80-5 or infected with AcNPV-hCANPI-2-5 prepared in Example 5 were incubated with or without the addition of 6.7 mM
CaCl2 for 5 minutes at room temperature, stopping the reaction by adding 6.7 mM EDTA and boiling the samples in SDS-PAGE-gel-loading buffer prior to storage at -70° C. The results of PAGE of the preparations are depicted in FIGS. 6a and b. In FIGS. 6a and b, the presence and absence of calcium is indicated by a "+" or "-", respectively. […] A single band is detected in all the samples incubated with calcium (lanes 2,5, and 7), and it comigrates with the 76 kDa native human calpain I (lane 2) that has also been incubated with calcium.
FIG. 6b contains the results of an immunoblot analysis of the same samples as in 6a except that the AB#34 antibody used was generated against the first five amino acids at the N-terminus of the 76 kDa fragment (anti-LGRHEC); (Saido et al., J. Biochem. 111:81-96 (1992)). […] Both the small amounts of the endogenously-cleaved recombinant calpain I large subunit and the single abundant 76 kDa band after the addition of calcium are detected by this antiserum.

[3] = test system: recombinant 80 kDa subunit of calpain I; test: Enzymatic activity of independently expressed 80 kDa subunit (Succ-Leu-Tyr-AMC); assay type: biochemical, human
Description: as §1
To determine the relative activity of the recombinantly produced 80 kDasubunit, the enzymatic activity of the subunit was examined in unfractionated extracts from Sf21 cells infected with AcNPV-hCANPI80-5. […] The same amount of enzyme activity for both the recombinant 80 kDa subunit and the recombinant calpain was then run on SDS-PAGE and the amount of each was qualitatively determined by immunoblot analysis as described in Example 4 above. As determined therefrom, approximately 4- to 5-fold more isolated 80 kDa protein is needed to give activity equivalent to that of the heterodimeric protein. Thus, the specific activity of the 80 kDa recombinant calpain I was experimentally determined to be approximately 20-25% that of the heterodimeric calpain I. This is approximately seven times greater than that of the 80 kDa subunit dissociated from native calpain I (Kikuchi et al., supra).

Molecule | calcium-dependent substrate hydrolysis (native human calpain I) | calcium-dependent substrate hydrolysis ([1]; 1 mM Succ-Leu-Tyr-AMC, 5 mM CaCl2, FIGS. 5c, 5d) | specific activity compared with native calpain ([1]; data not shown) | autocatalytic activation by added calcium [2] | specific activity relative to heterodimeric calpain I ([3]; 80 kDa subunit alone vs recombinant heterodimer) | specific activity relative to 80 kDa subunit dissociated from native calpain I ([3]; comparison with Kikuchi et al.) | amount of protein needed to give activity equivalent to heterodimeric protein ([3]; isolated 80 kDa protein vs heterodimer)
B1 | calcium-dependent increase in substrate hydrolysis | – | – | – | – | – | –
B2 | – | calcium-dependent increase in substrate hydrolysis | similar | correctly autoprocessed the 80 kDa subunit to the "activated" 76 kDa form | – | – | –
B3 | – | – | – | entire amount of the 80 kDa subunit recombinant protein is capable of being autocatalytically activated | 20-25% | approximately seven | 4- to 5 fold
